Assay results reported in PMC10868436.

Target: consensus sphingomyelinase
Assay: BLI; ForteBio Octet RED96, […]; 1:1 binding model, […]; triplicate

Row | Binder | Kd [nM]
1 | TPL0674_03_F05 (scFv, V domains shown) VH: EVQLVQSGAEVKKPGASVRVSCKASGYSITNYGISWVRQAPGQGLEWMGWINTYNGNTNYAQKFQGRVTMTRDTSISTAYMELSRLRSDDTAVYYCARDHPYRGMDVWGQGTLVTVSS VL: SYELTQDPAVSVALGQTVRITCQGDSLRSYYASWYQQKPGQAPVLVIYGKNNRPSGIPDRFSGSSSGNTASLTITGAQAEDEADYYCNSRDSSGNHPHVVFGGGTKLTVL | 60.2
2 | TPL0674_03_A04 (scFv, V domains shown) VH: QVQLVQSGSELKKPGASVKVSCKASGYTFTSYAMNWVRQAPGQGLEWMGWINTNTGNPTYAQGFTGRFVFSLDTSVSTAYLQISSLKAEDTAVYYCARDQGGDRHFGYWGQGTTVTVSS VL: QSELTQPPSASGTPGQRVTISCSGSSSNIGSHRVNWYQQLPGTAPKLLIYSNYHRPAGVPDRFSASKSGTSASLAISGLQSEDEADYYCAAWDDSLNGYVFGTGTQLTVL | 31.5
